Experimental data from patent publication US20090214547A1.
“And” between values parts separate entries of the source, which are not always exact repeats. Equal values may be shown once.

Experiments:
PLY Peptide 10146 [1] = assay: peptide ELISA, plate 1 overview
Peptide GNT-01 [2] = assay: peptide ELISA, plate 1 overview
Peptide GNT-13 [3] = assay: peptide ELISA, plate 1 overview
Peptide GNT-14 [4] = assay: peptide ELISA, plate 1 overview
Peptide GNT-07 [5] = assay: peptide ELISA, plate 1 overview
Peptide GNT-08 [6] = assay: peptide ELISA, plate 1 overview
PsaA Peptide 9144 [7] = assay: peptide ELISA, plate 1 overview
Peptide GNT-02 [8] = assay: peptide ELISA, plate 1 overview
PLY Peptide 10146 [9] = assay: peptide ELISA, plate 2
Peptide GNT-01 [10] = assay: peptide ELISA, plate 2
Peptide GNT-13 [11] = assay: peptide ELISA, plate 2
Peptide GNT-14 [12] = assay: peptide ELISA, plate 2
Peptide GNT-10 [13] = assay: peptide ELISA, plate 2
Peptide GNT-07 [14] = assay: peptide ELISA, plate 2
Peptide GNT-09 [15] = assay: peptide ELISA, plate 2
Peptide GNT-062 [16] = assay: peptide ELISA, plate 2
Peptide GNT-08 [17] = assay: peptide ELISA, plate 2
Peptide GNT-04 [18] = assay: peptide ELISA, plate 2
Peptide GNT-06 [19] = assay: peptide ELISA, plate 2
Peptide GNT-061 [20] = assay: peptide ELISA, plate 2
PsaA Peptide 9144 [21] = assay: peptide ELISA, plate 2
Peptide GNT-05 [22] = assay: peptide ELISA, plate 2
PLY Peptide 10146 [23] = assay: peptide ELISA, plate 2 overview
Peptide GNT-01 [24] = assay: peptide ELISA, plate 2 overview
Peptide GNT-13 [25] = assay: peptide ELISA, plate 2 overview
Peptide GNT-14 [26] = assay: peptide ELISA, plate 2 overview
Peptide GNT-10 [27] = assay: peptide ELISA, plate 2 overview
Peptide GNT-07 [28] = assay: peptide ELISA, plate 2 overview
Peptide GNT-09 [29] = assay: peptide ELISA, plate 2 overview
Peptide GNT-062 [30] = assay: peptide ELISA, plate 2 overview
Peptide GNT-08 [31] = assay: peptide ELISA, plate 2 overview
Peptide GNT-04 [32] = assay: peptide ELISA, plate 2 overview
Peptide GNT-06 [33] = assay: peptide ELISA, plate 2 overview
Peptide GNT-061 [34] = assay: peptide ELISA, plate 2 overview
PsaA Peptide 9144 [35] = assay: peptide ELISA, plate 2 overview
Peptide GNT-02 [36] = assay: peptide ELISA, plate 2 overview
Peptide GNT-05 [37] = assay: peptide ELISA, plate 2 overview
PLY Peptide 10146 [38] = assay: peptide ELISA, plate 1
Peptide GNT-01 [39] = assay: peptide ELISA, plate 1
Peptide GNT-13 [40] = assay: peptide ELISA, plate 1
Peptide GNT-14 [41] = assay: peptide ELISA, plate 1
Peptide GNT-08 [42] = assay: peptide ELISA, plate 1
PsaA Peptide 9144 [43] = assay: peptide ELISA, plate 1
Peptide GNT-02 [44] = assay: peptide ELISA, plate 1

B1: 22-1C11.1 (antibody, V domains shown)
VH: VKLQESGGGVVQPGRSLRLSCAASGFTFSNYGMHWVRQAPGKGLEWVAVIWYDGSNKYYADFVKGRFTISRDNSKNTLYLQMNSLRAEDTAVYYCARRGNYYGLGSFYYYGMDVWGQGTTVTVSS
VL: DIQMTQSPATLSLSPGERATLSCRASQSVSSYLAWYQQKPGQAPRLLIYDASNRATGIPARFSGSGSGTDFTLTISSLEPEDFAVYYCQQCSNWHPTFGQGTKLEIKR
- Elisa reading (PLY Peptide 10146 [1]): 1.09
- Elisa reading (Peptide GNT-01 [2]): 0.72
- Elisa reading (Peptide GNT-13 [3]): 0.11
- Elisa reading (Peptide GNT-14 [4]): 0.1
- Elisa reading (Peptide GNT-07 [5]): 0.24
- Elisa reading (Peptide GNT-08 [6]): 0.71
- Elisa reading (PsaA Peptide 9144 [7]): 0.16
- Elisa reading (Peptide GNT-02 [8]): 2.05
- Elisa reading (PLY Peptide 10146 [9]): 1.58
- Elisa reading (Peptide GNT-01 [10]): 1.27
- Elisa reading (Peptide GNT-13 [11]): 0.264
- Elisa reading (Peptide GNT-14 [12]): 0.257
- Elisa reading (Peptide GNT-10 [13]): 0.403
- Elisa reading (Peptide GNT-07 [14]): 0.681
- Elisa reading (Peptide GNT-09 [15]): 0.475
- Elisa reading (Peptide GNT-062 [16]): 0.844
- Elisa reading (Peptide GNT-08 [17]): 0.73
- Elisa reading (Peptide GNT-04 [18]): 0.748
- Elisa reading (Peptide GNT-06 [19]): 0.56
- Elisa reading (Peptide GNT-061 [20]): 0.61
- Elisa reading (PsaA Peptide 9144 [21]): 0.539
- Elisa reading (Peptide GNT-05 [22]): 0.816
- Elisa reading (PLY Peptide 10146 [23]): 1.58
- Elisa reading (Peptide GNT-01 [24]): 1.27
- Elisa reading (Peptide GNT-13 [25]): 0.26
- Elisa reading (Peptide GNT-14 [26]): 0.26
- Elisa reading (Peptide GNT-10 [27]): 0.4
- Elisa reading (Peptide GNT-07 [28]): 0.68
- Elisa reading (Peptide GNT-09 [29]): 0.48
- Elisa reading (Peptide GNT-062 [30]): 0.84
- Elisa reading (Peptide GNT-08 [31]): 0.73
- Elisa reading (Peptide GNT-04 [32]): 0.75
- Elisa reading (Peptide GNT-06 [33]): 0.56
- Elisa reading (Peptide GNT-061 [34]): 0.61
- Elisa reading (PsaA Peptide 9144 [35]): 0.54
- Elisa reading (Peptide GNT-02 [36]): > 3
- Elisa reading (Peptide GNT-05 [37]): 0.82
- Elisa reading (PLY Peptide 10146 [38]): 1.09 and 1.71 and 2.24
- Elisa reading (Peptide GNT-01 [39]): 0.72 and 1.16 and 1.7
- Elisa reading (Peptide GNT-13 [40]): 0.11 and 0.12 and 0.25
- Elisa reading (Peptide GNT-14 [41]): 0.1 and 0.22
- Elisa reading (Peptide GNT-08 [42]): 0.71 and 0.91 and 1.52
- Elisa reading (PsaA Peptide 9144 [43]): 0.16 and 0.1 and 0.19
- Elisa reading (Peptide GNT-02 [44]): 2.05 and 2.51 and 3
